Source: patent US20220142994A1, “Beta-Carboline Compounds And Use Thereof For The Non-Cytotoxic And Immunological Treatment Of Cancer” (AC BIOSCIENCE SA, priority 2019, published 2022)

Tests used:
[1] = tested on: PD-L1 on melanoma B16 cells; test: PD-L1 expression level by flow cytometry; assay type: cell-based, murine; conditions: 5 μM harmine or 50 μg/ml interferon, 24 hours
Experimental: Melanoma B16 cells were treated by 5 μM harmine or 50 μg/ml interferon for 24 hours. PD-L1 level was assessed by flow cytometry using the FMI mode.
This can be considered as a favourable property because PD-L1 overexpression in tumour cells is constantly associated with poorer overall survival in cancer patients.

[2] = tested on: L929 cells; conditions: cited from earlier work

B1: interferon gamma: interferon gamma, known to increase the MHC I density at the cell membrane; positive control (protein, UniProt P01580 23-155, looked up)
Interferon gamma: HGTVIESLESLNNYFNSSGIDVEEKSLFLDIWRNWQKDGDMKILQSQIISFYLRLFEVLKDNQAISNNISVIESHLITTFFSNSKAKKDAFMSIAKFEVNNPQVQRQAFNELIRVVHQLLPESSLRKRKRSRC
PD-L1 expression at the membrane [1]: huge effect | fluorescent intensity (MHC class I and actin staining) ([2]; IFN-γ pre-treated cells compared to cells only): more fluorescent intensity | actin density [2]: significant increase of actin density
